Tests used:
[1] = molecular target: human MC4-receptor (human) (UniProt P32245); experiment: competition with [^125I]NDP-MSH on COS cells expressing human MC4 receptor; Ki by Cheng-Prusoff
[2] = molecular target: human MC4-receptor (human) (UniProt P32245); experiment: ratio of Ki values, competition with [^125I]NDP-MSH on COS-1 cells expressing human MC receptors
[3] = molecular target: human MC5-receptor (human) (UniProt P33032); experiment: as above
[4] = molecular target: human MC5-receptor (human) (UniProt P33032); experiment: competition with [^125I]NDP-MSH on COS cells expressing human MC5 receptor; Ki by Cheng-Prusoff

Chain of human MC4-receptor (human) (P32245 whole entry): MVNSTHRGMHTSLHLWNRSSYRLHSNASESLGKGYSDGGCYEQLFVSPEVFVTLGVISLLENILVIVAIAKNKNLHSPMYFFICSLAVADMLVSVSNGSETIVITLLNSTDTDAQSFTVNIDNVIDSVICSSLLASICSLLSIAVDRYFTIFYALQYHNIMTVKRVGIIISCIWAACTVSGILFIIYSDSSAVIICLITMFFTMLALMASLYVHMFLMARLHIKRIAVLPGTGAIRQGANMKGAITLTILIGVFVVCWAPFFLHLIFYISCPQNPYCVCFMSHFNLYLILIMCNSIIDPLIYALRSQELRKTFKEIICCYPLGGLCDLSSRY
Chain of human MC5-receptor (human) (P33032 whole entry): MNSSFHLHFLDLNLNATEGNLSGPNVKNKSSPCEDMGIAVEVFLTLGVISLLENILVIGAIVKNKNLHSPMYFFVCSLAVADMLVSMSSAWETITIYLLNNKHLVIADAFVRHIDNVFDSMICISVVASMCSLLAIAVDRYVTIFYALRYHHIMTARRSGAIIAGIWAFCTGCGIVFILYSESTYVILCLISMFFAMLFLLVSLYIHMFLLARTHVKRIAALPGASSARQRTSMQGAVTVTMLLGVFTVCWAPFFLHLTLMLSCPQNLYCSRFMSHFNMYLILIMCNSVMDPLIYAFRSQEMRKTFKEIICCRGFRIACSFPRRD

## MS05 (Ser-Ser-Ile-Ile-Ser-His-Phe-Arg-Trp-Gly-Lys-Pro-Val-NH2) (peptide)
[1]
  Ki: > 50 µM
[2]
  fold lower affinity than for the MC1-receptor: > 65000 fold
[3]
  fold lower affinity than for the MC1-receptor: > 65000 fold
[4]
  Ki: > 50 µM

— patent US20070027086A1
